# Results: patent publication US20080153749
# T1: full-length HTm4 protein (human, recombinant, His tag cleaved with Factor Xa)
# T1 chain: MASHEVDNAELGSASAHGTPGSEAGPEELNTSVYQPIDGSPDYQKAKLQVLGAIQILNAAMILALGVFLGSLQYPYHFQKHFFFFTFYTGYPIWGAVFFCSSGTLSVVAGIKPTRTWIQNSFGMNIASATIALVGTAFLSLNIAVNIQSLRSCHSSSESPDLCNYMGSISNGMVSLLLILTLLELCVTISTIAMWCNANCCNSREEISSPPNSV
# Key:
# [1] = molecular target: T1, full-length HTm4 protein (human, …)
# [2] = molecular target: cdk2.cyclin A complex (recombinant, Upstate), P24941
protein,measurement,setting,value
"KAP (wild-type, full-length KAP protein) (protein) MKPPSSIQTSEFDSSDEEPIEDEQTPIHISWLSLSRVNCSQFLGLCALPGCKFKDVRRNVQKDTEELKSCGIQDIFVFCTRGELSKYRVPNLLDLYQQCGIITHHHPIADGGTPDIASCCEIMEELTTCLKNYRKTLIHCYGGLGRSCLVAACLLLYLSDTISPEQAIDSLRDLRGSGAIQTIKQYNYLHEFRDKLAAHLSSRDSQSRSVSR",Km of KAP phosphatase activity in the presence of HTm4,[1],A parallel increase in Km (to 8.33 µM) was also observed
same,Vmax of KAP phosphatase activity in the presence of HTm4,[1],the Vmax of KAP phosphatase activity increased dramatically to 17.5 nM/min
same,dephosphorylating activity of KAP toward phosphorylated cdk2,[1],HTm4 increases the dephosphorylating activity of KAP toward phosphorylated cdk2 by more than 6-fold
same,Km of KAP phosphatase activity in the absence of HTm4 (substrate active cdk2.cyclin A),[2],"Vmax and Km for the samples in the presence and absence of HTm4 are 17.5, 1.30 nM/min, and 8.33, 2.68 µM, respectively"
same,Vmax of KAP phosphatase activity in the absence of HTm4 (substrate active cdk2.cyclin A),[2],"Vmax and Km for the samples in the presence and absence of HTm4 are 17.5, 1.30 nM/min, and 8.33, 2.68 µM, respectively"
